Test results reported in article doi:10.1101/2024.02.09.579451.

Biological target: T1, human Kir2.1 channel, wild type (Kir2.1-WT) (human), P63252
T1 chain: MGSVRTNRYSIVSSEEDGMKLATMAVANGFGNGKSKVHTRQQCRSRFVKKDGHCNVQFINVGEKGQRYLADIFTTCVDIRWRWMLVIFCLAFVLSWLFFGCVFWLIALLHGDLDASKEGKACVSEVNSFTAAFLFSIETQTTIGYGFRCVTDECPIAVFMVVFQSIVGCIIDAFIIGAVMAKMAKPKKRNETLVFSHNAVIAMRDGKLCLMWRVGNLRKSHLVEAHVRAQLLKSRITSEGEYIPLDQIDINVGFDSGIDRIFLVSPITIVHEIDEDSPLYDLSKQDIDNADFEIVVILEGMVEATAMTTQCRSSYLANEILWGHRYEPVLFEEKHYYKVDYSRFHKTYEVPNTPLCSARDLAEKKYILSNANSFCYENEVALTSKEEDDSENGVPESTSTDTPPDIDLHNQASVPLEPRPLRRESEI
Assay: SEC-MALLS
Settings: remark: other sources report otherwise

B1: human Kir2.1 channel, wild type (Kir2.1-WT), P63252 1-427 (natural protein)
chain: MGSVRTNRYSIVSSEEDGMKLATMAVANGFGNGKSKVHTRQQCRSRFVKKDGHCNVQFINVGEKGQRYLADIFTTCVDIRWRWMLVIFCLAFVLSWLFFGCVFWLIALLHGDLDASKEGKACVSEVNSFTAAFLFSIETQTTIGYGFRCVTDECPIAVFMVVFQSIVGCIIDAFIIGAVMAKMAKPKKRNETLVFSHNAVIAMRDGKLCLMWRVGNLRKSHLVEAHVRAQLLKSRITSEGEYIPLDQIDINVGFDSGIDRIFLVSPITIVHEIDEDSPLYDLSKQDIDNADFEIVVILEGMVEATAMTTQCRSSYLANEILWGHRYEPVLFEEKHYYKVDYSRFHKTYEVPNTPLCSARDLAEKKYILSNANSFCYENEVALTSKEEDDSENGVPESTSTDTPPDIDLHNQASVPLEPRPLRRESEI
Question: B1 was tested. Which stoichiometry N did it give?
Answer: 4
